Data as given in patent publication US20020199213A1 (Kyowa Kirin, published 2002).
Values belong to the molecule of their own block, whether it stands above or below them.

How the values were obtained:
CD4:Fc (human) = CD4:Fc (human) (UniProt P01730); test: SPR, BIAcore2000, CD4:Fc immobilized by amine coupling, MAb flowed
[1] = target: T1, Human CD152 Mu-Ig fusion (Ancel # 501-820) (human, UniProt P16410 36-161); test: ELISA of hybridoma supernatant on coated human CD152 mu-Ig fusion (assay taken from paragraph 247; the table does not explain OD)
T1 construct: Bought reagent; coated on ELISA plates at 0.2 ug/ml for hybridoma screening; also called CTLA-4; not shown: murine Ig part of the bought fusion, not described
T1 sequence (looked up): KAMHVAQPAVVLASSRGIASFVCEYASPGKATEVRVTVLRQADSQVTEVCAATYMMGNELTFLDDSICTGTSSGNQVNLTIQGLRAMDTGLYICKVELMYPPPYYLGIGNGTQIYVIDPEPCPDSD

- Ka (CD4:Fc (human)): 3.1e+10 M⁻¹
- koff (CD4:Fc (human)): 7.1e-06 s⁻¹
- kon (CD4:Fc (human)): 220000 M⁻¹ s⁻¹
Molecule: murine anti-CD4 MAb, Leu3a (Pharmingen) (antibody)

- OD [1]: 1.3 OD
B1: 9C4 (antibody, V domains shown)
VH: QVQLVESGGGVVEPGRSLRLSCAASGFTFSSYGMHWVRQAPGKGLEWVAVIWYKSSEKDYADSAKGRFTISRDNSKNTLYLQMNSLRAEDTAVYYCARAGLLGYFDYWGQGTLVTVSS
VL: EIVLTQSPGTLSLSPGERATLSCRASQSLNSYLAWYQQKPGQAPRPLIYGVSSRATGIPDRFSGSGSGTDFTLTISRLEPEDFAVYYCQQYGIYPFTFGPGTKVDIK

- OD [1]: 1.39 OD
B2: 1H5 (antibody, V domains shown)
VH: QLQLQESGPGLVKPSETLSLTCTVSGGSISNSNYYWGWIRQPPGKELEWIGSIYYTGNTYYNPSLKSRVTVSVDTSRNQFSLNLNSVIAADTAVYSCARHGFTISWSLDVWGQGTTVTVSS
VL: AIQLTQSPSSLSASVGDRVTITCRASQGISSALAWYQQKPGKAPKLLIYDASSLESGVPSRFSGSGSGTDFTLTISSLQPEDFATYYCQQFNSYLLTFGGGTKVEIK
